Source: ChEMBL document CHEMBL1145182, “Molecular dynamics simulations of the TEM-1 beta-lactamase complexed with cephalothin” (J Med Chem, 2005)

Assays:
[1] = substrate: CC(=O)OCC1=C(C(=O)O)N2C(=O)[C@@H](NC(=O)Cc3cccs3)[C@H]2SC1; assay: (§1) Binding affinity for TEM-1 beta-lactamase; conditions: Escherichia coli
[2] = substrate: CC1(C)S[C@@H]2[C@H](NC(=O)Cc3ccccc3)C(=O)N2[C@H]1C(=O)O; assay: as §1; conditions: Escherichia coli

B1: Beta-lactamase TEM (Escherichia coli), P62593 (protein)
chain: MSIQHFRVALIPFFAAFCLPVFAHPETLVKVKDAEDQLGARVGYIELDLNSGKILESFRPEERFPMMSTFKVLLCGAVLSRVDAGQEQLGRRIHYSQNDLVEYSPVTEKHLTDGMTVRELCSAAITMSDNTAANLLLTTIGGPKELTAFLHNMGDHVTRLDRWEPELNEAIPNDERDTTMPAAMATTLRKLLTGELLTLASRQQLIDWMEADKVAGPLLRSALPAGWFIADKSGAGERGSRGIIAALGPDGKPSRIVVIYTTGSQATMDERNRQIAEIGASLIKHW
- Km [1]: 347 µM
- Km [2]: 75 µM
